Reference: publication PMC5780489

How the values were obtained:
[1] = molecular target: poly(A)-binding protein C1 (PABPC1), full length human (human) (UniProt P11940)
[2] = molecular target: PABPC1ΔLt2 (residues 1-420, 471-636) (human) (UniProt P11940)

Sequence of poly(A)-binding protein C1 (PABPC1), full length human (P11940 whole entry): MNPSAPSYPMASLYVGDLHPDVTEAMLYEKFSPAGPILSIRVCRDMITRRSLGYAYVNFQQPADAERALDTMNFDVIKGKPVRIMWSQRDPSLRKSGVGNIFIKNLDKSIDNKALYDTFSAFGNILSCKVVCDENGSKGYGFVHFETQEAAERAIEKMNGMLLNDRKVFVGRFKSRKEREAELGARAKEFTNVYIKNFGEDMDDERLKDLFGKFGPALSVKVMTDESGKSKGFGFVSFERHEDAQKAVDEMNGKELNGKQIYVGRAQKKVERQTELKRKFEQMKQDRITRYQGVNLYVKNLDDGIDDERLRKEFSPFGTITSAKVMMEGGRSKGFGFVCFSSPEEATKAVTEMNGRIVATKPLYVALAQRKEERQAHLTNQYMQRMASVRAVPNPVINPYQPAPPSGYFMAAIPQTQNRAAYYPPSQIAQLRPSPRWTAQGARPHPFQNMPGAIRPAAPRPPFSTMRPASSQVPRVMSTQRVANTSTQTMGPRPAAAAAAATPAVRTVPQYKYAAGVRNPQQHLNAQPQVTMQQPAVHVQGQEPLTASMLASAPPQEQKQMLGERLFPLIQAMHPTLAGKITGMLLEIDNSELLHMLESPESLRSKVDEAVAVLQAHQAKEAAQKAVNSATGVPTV

Substance	translation of capped luciferase mRNA with poly(A) in PABPC1-depleted rabbit reticulocyte lysate after adding 10 nM purified protein; fold enhancement over depleted lysate [1]	translation of capped luciferase mRNA with poly(A) in PABPC1-depleted rabbit reticulocyte lysate after adding 10 nM purified protein; fold enhancement over depleted lysate [2]
poly(A)-binding protein C1 (PABPC1), full length human (from UniProt P11940 1-636) (natural protein)	2.5 fold	–
PABPC1ΔLt2 (residues 1-420, 471-636) (from UniProt P11940 1-636) (natural protein)	–	1.7 fold
